# From the DeepSol protein solubility set
# Assay: soluble on expression in E. coli; label from the status in PepcDB or PDB records
row,Sequence,soluble on expression in E. coli
1,MSLSVEFNKQQVRPRSEISPQDCWDITPLYLNRKAWKADLDSFGLKTDGSPTWPALQATQYQLDNSESLLSLLTTLFSIERKLNKLYVYAHLTHDQDITNQEGIADLKSITHLHTLFAEETSWVQPALTSLSESLIAQHLSAPCLAPYRFYLEKIFRLSIHTGTPGEEKILASAFTPLEVASKAFSSLSDSEIPFGQATDSEGNSHPLSHALASLYMQSTDRELRKTSYLAQCERYHSYRHTFANLLNGKIQAHVFYAKNKRYNSCLQAALYHNNIPTTVYTNLIDIVKKNSSLITKYFSIKQRCLNLKDFHFYDVYAPLSQSKEKKYTFQEAVDLIYTSLSPLGTEYIDTLKQGLTTQGWVDKYENLNKRSGAYSSGCYDSHPYVLLNYTGTLYDVSVIAHEGGHSMHSYFSRKHQPFHDAQYPIFLAEIASTLNEMLLMDSMLKESDSKEEKITILTRCLDTIFSTLFRQVLFASFEYDIHHAAEHGVPLTEEYLSSTYKNLQNEFYGEIITFDVLSNIEWARIPHFYYNFYVYQYATGIIAALCFLEKILNNEDNALNSYLNFLKSGGSDFPLEILKKSGLDMGTVEPIQKAFCFIEKKIQELSSLIEGHHHHHH,soluble
2,MAHHHHHHMGGCLISPSAEMQLEENTTSPFGHRRPIFGLFGAGEVTGGVHGGNRLGGNSLLECVVFGRIAGDRAATILQNNDTYLWGEKWSQLKLRNVMEDENGFMWLHFTFPSSFQVSGLEALQGVVLRSVSGDKSVEVYTPYTLPDDEGVVGIALSPWLTGNGVHWLRTLQPGDTVEMKAAERVERNYMNMLKAPHKVVIATSRGIAPMMQILRATMERPEKDATIHLIYIADRASSIPYREKLKALAEASPERFRCTFVLQHPQPGWSGAVNYLDEIAASVFPDPAVVIFLCGASEETRSIKSSLLDMGHDVATIATVE,not soluble
3,HHHHHHSVFEDDLPFLEFTGSIVYSYDASDCSFLSEDISMSLSDGDVVGFDMEWPPLYNRGKLGKVALIQLCVSESKCYLFHVSSMSVFPQGLKMLLENKAVKKAGVGIEGDQWKLLRDFDIKLKNFVELTDVANKKLKCTETWSLNSLVKHLLGKQLLKDKSIRCSNWSKFPLTEDQKLYAATDAYAGFIIYRNLEILDDTVQR,soluble
4,MGSDKIHHHHHHLNIAVNTRLLLEDRLEGIGWFTYETLKRITEQNPQHTFHFFFDRPYNDKFVFGKNVVPHVLFPQARHPFLWYIFFEWSIPFMLRKVKADAFISTDGYMPKSSKVKVLNVIHDINFEHRPQDLPKRVANYYKKNMPLFAQKATRLATVSEFSKQDLVKTYNIPADKIDVVYNGCNAAFKPIPEAEQVKVRYKHSAGRPFFLYIGSMHPRKNILNLMKAFEVFKKMTNCDMKLLLVGKAMWSNKDIQSLYHTLIYRHDIHFLGHIKTAELARIMASAHALTFVPYFEGFGIPILEALNCGVPVITSNTTSLPEVAGKAALLVNPESSEAIANAMIQIYKAPHIREKLLAQGVIQRQKFSWDKTAALLWASFEKMMR,not soluble
5,MSLKITDVRAHQIRIPYDAGVASFRQGASAITALDMVIVEVTTDAGLTGWGDAFAYVCPRTTRSAVEEMIAPQARGLEVPDAAGIAAVMEQIQRNLHLFGRYGITMFAISGLDIALWDLAAKIKGVPVHRLLGETRRPAIPAYASLLRIGSPDNIAAECKKALALGYGAIKLHETTAPAVYAAREAIGPGVPLMVDMNCPLSGEQAIAFAGTCRDAQPMFLEEPVWPPEDFAALAEVRSKGGLGVAAGENACTEHQFRQMMNAGAVSHAQPSVIKVGGITEFLKVAALADRLGVKIVPHSPYFGPGLLATLHLLAGRDDGFVEMFYLKREACLWGGRADVDATGHVAVPTGLGLGYEPDRGVMERYRVAEGHHHHHH,not soluble
6,MGSDKIHHHHHHMFDRYEAGETAVLVHIDFSDEERREDLVELQLLVESAGARSVGVITGSRRSPDRKFFIGSGKAEELAALVAATEANVVIFNHALSPAQERNLEQVCQCRVLDRTSLILDIFAQRARTHEGKLQVELAQLRHMSTRLVRGWTHLERQKGGIGLRGPGETQLETDRRLLRGRIKNINKRLERVDKQREQSRRARKRSDMPTVSLVGYTNAGKSTLFNALTSSDVYAADQLFATLDPTLRKLDLPDGAVILADTVGFIRHLPHDLVAAFKATLQETRQAELLLHIVDCADENMADNFEQVQSVLKEIDADEVMQLIVCNKIDLLEDVTPRIEYDDRGKPVRVWVSAHKRLGFDLLLKAITELIGEVIHEFTLRIPATAGHYLGQFYRLDAIQQKEYDDLGNCILSVRLSDADWRRLAKQSQGELETFIFDPSIEKAVC,not soluble
7,MKKATCLTDDQRWQSVLARDPNADGEFVFAVRTTGIFCRPSCRARHALRENVSFYANASEALAAGFRPCKRCQPDKANPRQHRLDKITHACR,soluble
8,MGDIEDAPRIISGIGELDRATGGGFVRGSALLVGGDPGIGKSTLLTQAAAALASRGHRIVYVSGEEAVAQIRLRAQRLGVADSPVELAAETNVEDILATIADGKRPDLVILDSIQTLWTDLADSAPGTVTQVRAAAQAMIRYAKSTGAAIVLVGHVTKEGQIAGPRVVEHMVDGVLYFEGEGGHHYRILRTVKNRFGLEHHHHHH,not soluble
9,MSAQINNIRPEFDREIVDIVDYVMNYEISSKVAYDTAHYCLLDTLGCGLEALEYPACKKLLGPIVPGTVVPNGVRVPGTQFQLDPVQAAFNIGAMIRWLDFNDTWLAAEWGHPSDNLGGILATADWLSRNAVASGKAPLTMKQVLTAMIKAHEIQGCIALENSFNRVGLDHVLLVKVASTAVVAEMLGLTREEILNAVSLAWVDGQSLRTYRHAPNTGTRKSWAAGDATSRAVRLALMAKTGEMGYPSALTAPVWGFYDVSFKGESFRFQRPYGSYVMENVLFKISFPAEFHSQTAVEAAMTLYEQMQAAGKTAADIEKVTIRTHEACIRIIDKKGPLNNPADRDHCIQYMVAIPLLFGRLTAADYEDNVAQDKRIDALREKINCFEDPAFTADYHDPEKRAIANAITLEFTDGTRFEEVVVEYPIGHARRRQDGIPKLVDKFKINLARQFPTRQQQRILEVSLDRARLEQMPVNEYLDLYVI,soluble
10,EGAALTEKTDIFESGRNGKPNKDGIKSYRIPALLKTDKGTLIAGADERRLHSSDWGDIGMVIRRSEDNGKTWGDRVTITNLRDNPKASDPSIGSPVNIDMVLVQDPETKRIFSIYDMFPEGKGIFGMSSQKEEAYKKIDGKTYQILYREGEKGAYTIRENGTVYTPDGKATDYRVVVDPVKPAYSDKGDLYKGNQLLGNIYFTTNKTSPFRIAKDSYLWMSYSDDDGKTWSAPQDITPMVKADWMKFLGVGPGTGIVLRNGPHKGRILIPVYTTNNVSHLNGSQSSRIIYSDDHGKTWHAGEAVNDNRQVDGQKIHSSTMNNRRAQNTESTVVQLNNGDVKLFMRGLTGDLQVATSKDGGVTWEKDIKRYPQVKDVYVQMSAIHTMHEGKEYIILSNAGGPKRENGMVHLARVEENGELTWLKHNPIQKGEFAYNSLQELGNGEYGILYEHTEKGQNAYTLSFRKFNWDFLSKDLISPTEAKVKRTREMGKGVIGLEFDSEVLV,soluble
11,MQNVVGIDFQKSGKMEYYSPKGFDLDVGDWVVVESKRGLEMGRVKYAPLDVADQDVTLPLKEIVRLATEDDLLQYEKNEYDADEAMALCKETIQQHELEMRLVNCEYTLDKSKVIFNFTSDERVDFRKLVKVLAQKLKTRIELRQIGVRDEAKLLGGIGPCGRSLCCSTFLGDFEPVSIKMAKDQNLSLNPTKISGACGRLMCCLKYENDYYEEARAQLPDVGDAIETPEGNGKVIGLNILDISMQVKVEGLEQPLEYKMEELETLNLEHHHHHH,not soluble
12,MGSDKIHHHHHHMRDIHILHDLIKKQCPQIHQKRLNSLMVATESLLDGNQLSLTQLGRNITGSVAAKHNIKRIDRLLGNYHLAQDKITIYQWHARYLCGANPMPIILVDWSDVREQLRIMTLRASISVQGRSVTLYERTFLFEDYNAPRSHNAFLAELANVLPQGCCPLIVTDAGYRNTWFREVERYGWFWLGRVRGDVSFMHHGQTTWHSNKSLYSKANSTAKYIGNVQLARKSPLSCHLHLF,not soluble
13,MYVMTQSGWLEVICGCMFSGKSEELIRRVRLAQFAKQEVKVFKPTIDNRYSEDAVVSHNGNSVIAIPVATPAEMFRYISAATDVVAIDEVQFFSDDIIDVVQTLADGGCRVITAGLDQDFRGEPFGPVPALMAIAESVTKLQAVCTVCGSPASRTQRLINGAPASYDDPVILVGASEAYEPRCRHHHEVPGKPKKRYNRPLAGHTGE,not soluble
14,MKDVIEKRHIRAEVPIELTWDLSDLYESDKKWETALRVLTDDIKKLDAFKGQLHTSPTTLLHCLLLEEELLMKLTKLYSYANLKESTDRTNPVIQANSSKIAALWTKVHTALSFIHNEILSLEEGTIEKYLTKETKLEPFRKSLLDILQKRQYTLSPETEEALAALGEVHSSPYKIYGMTKLADMDFNSIQDEQGNELPVSFSLFESKYEFSPSVDIRRKAYSSFVSTLKRYKNTVATTYATEVKKQVTLSRLRKFESVTHMLLEPQNVPLEMYNNQLDIIYKELAPHMRRFADLKKKVLGLDQMLFCDLHAPLDPEFNPAITYEEAGKLIQDSLQVLGDEYSAIIKKGFKERWVDLADNVGKSTGAFCSSPYGSHPYILITWQNTMRGCFTLAHEFGHAGHFYLANKNQRIMNVRPSMYFVEAPSTMNELLLAQHLLATTDDKRMRRWVILQLLGTYYHNFVTHLLEGEYQRRVYSLAEEGEALTATTLTEIKTNVLSTFWGNSVEIDEGAGLTWMRQPHYYMGLYSYTYSAGLTASTAVAQMIKEEGQPAVDRWLDVLRAGGTMKPLELMKHAGVDMSKPDAIRKAVSYVGSLIDELERSYEE,not soluble
15,MIMQEIFLCSISNVRSGDCKEDCAYCTQSSHHQGAIKRYKFKDEKVVLQEARALRQLGALGFCLVTSGRELDDEKCEYIAKLAKAINQEELGLHLIACCGRADLEQLEFLRDAGIHSYNHNLETSQNFFPKICSTHTWEERFITCENALRAGLGLCSGGIFGLNESWEDRIEMLRALASLSPHTTPINFFIKNPVLPIDAETLSADEALECVLLAKEFLPNARLMVAGGREVVFKDNDKKEAKLFEYGINAVVLGDYLTTKGKAPKKDIEKLLSYGLTMATSCHLEHHHHHH,not soluble
16,MTTDFTPWPEALAAQYRQLGYWQDKTLLDYLQQSAERTPNALALVGDNQQWRYQAMLERIEQLAAGFTELGLGCGDNVVLQLGNVAEFYLCFFALLRQGIRPILALPAHRLAEIRYFCQHSQAKAYLIDGAQRPFDYQALAQELLACCPTLQTVIVRGQTRVTDPKFIELASCYSASSCQANADPNQIAFFQLSGGTTGTPKLIPRTHNDYAYSVTASVEICRFDQHTRYLCVLPAAHNFPLSSPGALGVFWAGGCVVLSQDASPQHAFKLIEQHKITVTALVPPLALLWMDHAEKSTYDLSSLHFVQVGGAKFSEAAARRLPKALGCQLQQVFGMAEGLVNYTRLDDSAELIATTQGRPISAHDQLLVVDEQGQPVASGEEGYLLTQGPYTIRGYYRADQHNQRAFNAQGFYITGDKVKLSSEGYVIVTGRAKDQINRGGEKIAAEEVENQLLHHPAVHDAALIAISDEYLGERSCAVIVLKPEQSVNTIQLKRFLHQAGLADYKIPDQIQFIDQLPKTSVGKIDKNALRRRFDTLGLALMS,not soluble
17,MGSDKIHHHHHHMALSERLSRFLARKGITYQPLETEPVANLDAAVLASGKPQHDFIKATLLIDINGVVMVVHRFDSTLDMDAVHQFTGRRLQPLTARQTSRLFGDCDAGFVPPIGAAWELPVLVDEDVVTAESVIFSGGTDHSLVEMDGRAFRLAQAGARQGHLVIRGQGGEDREALTLEDVADKLQKLYRLPPMPALALRILRLTANTEATAKELAELIEFDPSMTAQIMRYARSALFNYPGQINSVQEAVTRVLGFDRVAHIALGIASVRAFDVPRGGMLGMDNFWRHSLYCAFLCQNLAAYSGRDKGLAYLCGLLHNFGLLLVGHLFPSEFEELNALREINPEASMHSLEQEVFGHSERQDILAVGHGAIGGILHRLWQLPEAVIKAAGMHQHIGYHGEHEEYVQMVQLANAILKERGIGDELNPDDLPALVESLGLRADVLERVQSDMDQVASDLDVLASSLAS,not soluble
